Results: IntAct's records for PubMed 20489725
Each block holds one substance with its values, some of them ahead of it.

Assays:
obscn_human OBSCN [1] = target: obscn_human OBSCN (UniProt Q5VST9)
obsl1_human OBSL1 [2] = target: obsl1_human OBSL1 (UniProt O75147)
obsl1_human OBSL1 [3] = target: obsl1_human OBSL1 (UniProt O75147); remark: listed apart in the source
obscn_human OBSCN [4] = target: obscn_human OBSCN (UniProt Q5VST9); remark: listed apart in the source
obsl1_human OBSL1 [5] = target: obsl1_human OBSL1 (UniProt O75147); remark: listed apart in the source
obscn_human OBSCN [6] = target: obscn_human OBSCN (UniProt Q5VST9); remark: listed apart in the source
obsl1_human OBSL1 [7] = target: obsl1_human OBSL1 (UniProt O75147); remark: listed apart in the source
obscn_human OBSCN [8] = target: obscn_human OBSCN (UniProt Q5VST9); remark: listed apart in the source

Chain of obsl1_human OBSL1 (O75147 whole entry): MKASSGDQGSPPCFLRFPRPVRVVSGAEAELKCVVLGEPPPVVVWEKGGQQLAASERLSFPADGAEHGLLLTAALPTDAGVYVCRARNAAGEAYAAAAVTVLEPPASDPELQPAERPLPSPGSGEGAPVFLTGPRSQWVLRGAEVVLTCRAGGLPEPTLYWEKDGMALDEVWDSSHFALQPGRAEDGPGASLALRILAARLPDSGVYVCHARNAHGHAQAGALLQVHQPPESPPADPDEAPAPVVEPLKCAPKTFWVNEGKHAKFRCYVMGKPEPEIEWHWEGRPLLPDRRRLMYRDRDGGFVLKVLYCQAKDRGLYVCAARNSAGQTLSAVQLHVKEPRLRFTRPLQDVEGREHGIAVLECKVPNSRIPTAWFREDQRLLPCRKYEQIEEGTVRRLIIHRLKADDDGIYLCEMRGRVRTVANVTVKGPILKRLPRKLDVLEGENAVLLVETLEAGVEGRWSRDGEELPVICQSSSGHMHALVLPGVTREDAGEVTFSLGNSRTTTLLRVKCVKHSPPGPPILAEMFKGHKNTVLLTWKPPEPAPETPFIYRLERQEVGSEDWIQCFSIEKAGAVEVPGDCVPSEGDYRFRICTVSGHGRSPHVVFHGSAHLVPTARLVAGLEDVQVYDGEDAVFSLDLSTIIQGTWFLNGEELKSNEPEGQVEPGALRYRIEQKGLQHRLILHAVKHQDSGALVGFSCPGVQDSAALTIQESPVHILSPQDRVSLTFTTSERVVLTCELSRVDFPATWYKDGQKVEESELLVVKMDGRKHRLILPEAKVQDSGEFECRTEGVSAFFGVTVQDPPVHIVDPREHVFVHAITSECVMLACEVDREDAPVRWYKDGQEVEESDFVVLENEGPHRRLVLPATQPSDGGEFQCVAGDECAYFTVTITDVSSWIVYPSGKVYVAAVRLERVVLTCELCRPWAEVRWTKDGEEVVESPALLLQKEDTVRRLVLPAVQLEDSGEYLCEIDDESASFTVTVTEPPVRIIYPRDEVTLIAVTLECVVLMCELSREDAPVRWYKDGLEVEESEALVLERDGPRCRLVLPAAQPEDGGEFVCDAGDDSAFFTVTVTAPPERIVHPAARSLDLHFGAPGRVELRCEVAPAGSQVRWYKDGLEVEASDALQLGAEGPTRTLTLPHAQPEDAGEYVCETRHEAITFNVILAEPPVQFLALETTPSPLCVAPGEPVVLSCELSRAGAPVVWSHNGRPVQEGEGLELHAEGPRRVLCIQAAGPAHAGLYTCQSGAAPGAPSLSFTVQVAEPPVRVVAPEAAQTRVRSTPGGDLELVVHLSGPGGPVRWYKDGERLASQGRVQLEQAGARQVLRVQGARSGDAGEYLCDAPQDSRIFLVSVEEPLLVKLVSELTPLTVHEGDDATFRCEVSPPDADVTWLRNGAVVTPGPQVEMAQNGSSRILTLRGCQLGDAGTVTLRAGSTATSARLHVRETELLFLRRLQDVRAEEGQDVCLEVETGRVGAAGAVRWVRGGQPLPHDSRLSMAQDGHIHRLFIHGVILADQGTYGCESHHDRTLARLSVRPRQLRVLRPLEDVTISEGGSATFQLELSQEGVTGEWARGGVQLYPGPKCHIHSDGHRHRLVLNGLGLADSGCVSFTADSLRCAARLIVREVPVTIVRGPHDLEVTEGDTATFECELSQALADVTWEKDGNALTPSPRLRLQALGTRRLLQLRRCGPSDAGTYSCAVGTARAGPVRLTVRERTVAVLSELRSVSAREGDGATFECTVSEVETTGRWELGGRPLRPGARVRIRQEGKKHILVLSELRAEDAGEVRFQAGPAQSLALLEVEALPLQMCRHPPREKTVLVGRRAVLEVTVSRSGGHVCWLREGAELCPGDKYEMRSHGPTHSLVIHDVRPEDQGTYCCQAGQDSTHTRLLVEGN

effect of a mutation on the interaction (obsl1_human OBSL1 [3]): decreasing interaction | effect of a mutation on the interaction (obscn_human OBSCN [4]): decreasing interaction
Substance: Titin (Homo sapiens), Q8WZ42 H34305P

effect of a mutation on the interaction (obsl1_human OBSL1 [5]): decreasing interaction | effect of a mutation on the interaction (obscn_human OBSCN [6]): decreasing interaction
Substance: Titin (Homo sapiens), Q8WZ42 I34306N

effect of a mutation on the interaction (obsl1_human OBSL1 [7]): increasing interaction | effect of a mutation on the interaction (obscn_human OBSCN [8]): decreasing interaction
Substance: Titin (Homo sapiens), Q8WZ42 R34348E

Further lines, the substance ahead of its results:

Substance: Titin (Homo sapiens), Q8WZ42 D34311R
effect of a mutation on the interaction (obscn_human OBSCN [1]): decreasing interaction

Substance: Titin (Homo sapiens), Q8WZ42 D34311S
effect of a mutation on the interaction (obsl1_human OBSL1 [2]): decreasing interaction
